This is an account of results in patent US20250277054A1.

Bounds are passed on as bounds.

The target in assay [1] is human PSMA on human prostate cancer cells (LNCaP, C4-2, 22Rv1) (human) (UniProt Q04609). As to the kind of experiment: flow cytometry on 22Rv1 cells (PSMA low). (In flow cytometry, cells or beads pass a laser one at a time.)
The target is the same in assay [2]. As to the kind of experiment: flow cytometry on C4-2 cells (PSMA high).
The target is the same in assay [3]. The assay is described as follows: flow cytometry on LNCaP cells (PSMA high).
Assay [4] addresses Mouse PSMA.ECD.His (Acro) (mouse) (UniProt O35409). The assay is described as follows: ELISA, coated mouse PSMA protein (His tag).
Assay [5] addresses Human PSMA.ECD.His (Acro) (human) (UniProt Q04609). As to the kind of experiment: ELISA, coated human PSMA protein (His tag).
The target in assay [6] is full-length cynomolgus PSMA on Flp-in CHO cells (WBP3xx042-FlpinCHO.cPro1.B7) (cynomolgus). The assay is described as follows: flow cytometry on FlpInCHO-cyno PSMA cells.
Assay [7] concerns the target Cyno PSMA.ECD.His (Acro) (cynomolgus). As to the kind of experiment: ELISA, coated cynomolgus PSMA protein (His tag). On the technique in general: ELISA stands for enzyme-linked immunosorbent assay.
Assay [8] addresses Biotinylated Human PSMA/FOLH1 Protein, His, Avitag (human) (UniProt Q04609). The assay is described as follows: SPR (Biacore 8K), biotinylated human PSMA captured on streptavidin chip, antibody injected, single-cycle, 1:1 model. (In SPR one partner is held on a chip, and binding of the other changes the refractive index at the surface.)
Assay [9] addresses human PSMA on human prostate cancer cells (LNCaP, C4-2, 22Rv1) (human) (UniProt Q04609). The assay is described as follows: flow cytometry on LNCaP cells.
The target in assay [10] is Human PSMA.ECD.His (Acro) (human) (UniProt Q04609). As to the kind of experiment: ELISA, human PSMA ECD captured by anti-His antibody.
Chain of Human PSMA.ECD.His (Acro) (human) (Q04609 44-750): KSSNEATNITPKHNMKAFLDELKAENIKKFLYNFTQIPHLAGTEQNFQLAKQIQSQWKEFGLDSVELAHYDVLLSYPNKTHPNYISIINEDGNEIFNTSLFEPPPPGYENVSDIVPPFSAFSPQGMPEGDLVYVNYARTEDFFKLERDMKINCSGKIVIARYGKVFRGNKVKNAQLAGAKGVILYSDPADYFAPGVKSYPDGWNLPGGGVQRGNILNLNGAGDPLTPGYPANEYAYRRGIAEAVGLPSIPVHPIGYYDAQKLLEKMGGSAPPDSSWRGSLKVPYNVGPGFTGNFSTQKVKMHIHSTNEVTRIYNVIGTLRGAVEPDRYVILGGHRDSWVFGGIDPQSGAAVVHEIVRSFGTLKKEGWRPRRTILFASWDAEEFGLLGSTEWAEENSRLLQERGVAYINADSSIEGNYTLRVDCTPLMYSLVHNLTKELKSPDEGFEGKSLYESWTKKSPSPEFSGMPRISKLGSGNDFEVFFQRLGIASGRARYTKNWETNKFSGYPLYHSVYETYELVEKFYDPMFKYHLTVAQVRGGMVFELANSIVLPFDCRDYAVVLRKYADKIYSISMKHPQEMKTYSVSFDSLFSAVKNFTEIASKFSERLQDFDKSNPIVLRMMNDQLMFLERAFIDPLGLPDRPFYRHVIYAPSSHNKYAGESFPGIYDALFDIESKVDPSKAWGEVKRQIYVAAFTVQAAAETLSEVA
Assay [11] deals with full-length cynomolgus PSMA on Flp-in CHO cells (WBP3xx042-FlpinCHO.cPro1.B7) (cynomolgus). As to the kind of experiment: flow cytometry on cynomolgus PSMA-expressing CHO cells.
For assay [12], the target named is Cyno PSMA.ECD.His (Acro) (cynomolgus). As to the kind of experiment: ELISA, cynomolgus PSMA ECD captured by anti-His antibody.
For assay [13] the target is unchanged. As to the kind of experiment: SPR (Biacore 8K), antibody captured by anti-human IgG Fc, PSMA injected, 1:1 model.
Assay [14] has as its target Human PSMA.ECD.His (Acro) (human) (UniProt Q04609). The description is as above.

Chain of Mouse PSMA.ECD.His (Acro) (mouse) (O35409 45-752): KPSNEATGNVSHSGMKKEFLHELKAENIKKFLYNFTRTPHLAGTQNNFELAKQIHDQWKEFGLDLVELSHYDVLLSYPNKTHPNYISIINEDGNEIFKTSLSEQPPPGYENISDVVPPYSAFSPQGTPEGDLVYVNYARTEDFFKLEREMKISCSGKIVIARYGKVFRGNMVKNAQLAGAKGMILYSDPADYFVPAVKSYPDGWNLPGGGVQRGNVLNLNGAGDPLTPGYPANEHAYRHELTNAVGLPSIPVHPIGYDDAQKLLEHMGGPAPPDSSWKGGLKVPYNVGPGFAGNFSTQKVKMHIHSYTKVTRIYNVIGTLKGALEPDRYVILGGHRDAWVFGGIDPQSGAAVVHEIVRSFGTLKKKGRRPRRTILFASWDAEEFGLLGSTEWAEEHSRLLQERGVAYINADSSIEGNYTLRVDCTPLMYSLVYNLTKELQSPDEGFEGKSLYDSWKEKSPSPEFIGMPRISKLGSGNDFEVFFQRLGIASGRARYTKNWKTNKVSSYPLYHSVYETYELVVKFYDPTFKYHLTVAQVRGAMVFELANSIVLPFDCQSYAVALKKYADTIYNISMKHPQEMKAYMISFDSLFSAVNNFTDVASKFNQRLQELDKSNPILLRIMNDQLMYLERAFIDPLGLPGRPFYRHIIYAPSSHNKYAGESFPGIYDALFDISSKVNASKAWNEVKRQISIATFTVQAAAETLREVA
Chain of Biotinylated Human PSMA/FOLH1 Protein, His, Avitag (human) (Q04609 44-750 limits assumed): as the sequence (Q04609 44-750) above
Chain of human PSMA on human prostate cancer cells (LNCaP, C4-2, 22Rv1) (human) (Q04609 whole entry, the tested form may be a part): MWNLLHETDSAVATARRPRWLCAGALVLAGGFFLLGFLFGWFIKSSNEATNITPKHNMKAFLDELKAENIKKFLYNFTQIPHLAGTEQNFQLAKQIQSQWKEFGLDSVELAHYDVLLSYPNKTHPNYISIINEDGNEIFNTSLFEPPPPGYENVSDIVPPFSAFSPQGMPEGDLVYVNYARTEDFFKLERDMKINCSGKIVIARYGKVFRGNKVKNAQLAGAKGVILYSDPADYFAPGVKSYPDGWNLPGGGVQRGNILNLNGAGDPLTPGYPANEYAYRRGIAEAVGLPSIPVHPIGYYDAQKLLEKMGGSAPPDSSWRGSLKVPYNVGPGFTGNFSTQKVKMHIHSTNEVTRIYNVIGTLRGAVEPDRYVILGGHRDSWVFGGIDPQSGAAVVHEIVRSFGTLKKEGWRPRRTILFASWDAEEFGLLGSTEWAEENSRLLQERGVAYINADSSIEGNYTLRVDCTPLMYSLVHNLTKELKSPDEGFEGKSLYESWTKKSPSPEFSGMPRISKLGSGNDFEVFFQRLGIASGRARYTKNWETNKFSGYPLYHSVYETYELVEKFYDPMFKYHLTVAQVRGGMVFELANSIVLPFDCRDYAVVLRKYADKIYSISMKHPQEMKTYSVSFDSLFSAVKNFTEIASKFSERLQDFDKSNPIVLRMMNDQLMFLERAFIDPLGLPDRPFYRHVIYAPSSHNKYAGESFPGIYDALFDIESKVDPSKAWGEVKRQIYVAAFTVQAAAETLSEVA

Consider AMG 160 (BMK2) (bispecific antibody), for which the EC50 was 46.1 nM in assay [1]; 34.4 nM in assay [2]; 30.8 nM in assay [3]; 0.22 nM in assay [5]; 55.8 nM in [6]; 0.48 nM in assay [7]. Besides, the Max MFI in assay [1] was found to be 5910 MFI; in assay [2], 34200 MFI; in assay [3] it was 19100 MFI; in assay [6], 62900 MFI. Besides, the Max OD450-540 in [4] came to 0.09 OD450-540; in assay [5] it was 3.52 OD450-540; in assay [7], 3.57 OD450-540. Moreover, the dissociation constant Kd in [8] is 36.7 nM.

For the substance “AMG 340/TNB-585 (BMK1) (bispecific antibody)”, in [1], the EC50 stood at 174 nM and the Max MFI was found to be 5280 MFI. In assay [2], this substance showed an EC50 of 35.3 nM and a Max MFI of 34700 MFI. In assay [3], this substance displayed an EC50 of 55.7 nM and a Max MFI of 16300 MFI. The Max OD450-540 in assay [4] was found to be 0.05 OD450-540. This substance also had a Max MFI in [6] of 2870 MFI. In assay [8], this substance had a Kd of 32.3 nM, a koff of 0.00378 s⁻¹ and a kon of 117000 M⁻¹ s⁻¹.

With J591 antibody (W3XX042-BMK1), the EC50 in assay [9] was 0.48 nM; in [10] it was 0.077 nM; in assay [11] it was 3.63 nM; in assay [12] it was 0.011 nM. Moreover, the Max MFI was 3590 MFI in assay [9] and 93300 MFI in [11]. The Max OD450 in assay [10] amounted to 2.34 OD450; in [12], 2.79 OD450. Besides, the Kd in assay [13] is 1.82 nM; in assay [14], 1.27 nM. In addition, the koff in assay [13] was found to be 0.000192 s⁻¹.

In the case of “human IgG isotype antibody (negative control)”, the Max MFI in [9] worked out at 47.7 MFI; in assay [11], 34.8 MFI. Further, the EC50 in [4] is above 100 nM; in assay [11] it was above 100 nM; in assay [12] it was above 10 nM. Further, the Max OD450 was found to be 0.093 OD450 in [4], 0.263 OD450 in [10] and 0.258 OD450 in [12].

Regarding isotype hIgG4 control (antibody), the Max MFI worked out at 372 MFI in assay [1], 138 MFI in assay [2], 181 MFI in assay [3] and 19.9 MFI in assay [6]. Besides, the Max OD450-540 worked out at 0.09 OD450-540 in assay [4], 0.04 OD450-540 in assay [5] and 0.04 OD450-540 in assay [7].

Broadly, the EC50 is the concentration that produces a half-maximal response. Read a low EC50 as greater potency. A word on the Kd: it is the concentration at which binding is half-saturated. A low value points to tighter binding. As a reminder, the koff is a measure of how fast the partners let go of each other. One may read the kon as the second-order rate constant of association. Lower therefore signals slower complex formation.
